From publication PMC6205632 (Nature structural & molecular biology, 2017)

Biological target: the molecule itself
Experiment: SEC

B1: MDM2 RING homodimer (MDM2 428-C), tag removed (domain or fragment)
chain: SSLPLNAIEPCVICQGRPKNGCIVHGKTGHLMACFTCAKKLKKRNKPCPVCRQPIQMIVLTYFP
B1: binds.
